Results taken from patent US20200339678A1 (RIGEL PHARMACEUTICALS, published 2020).
Where a chain is given by its changes, count along the chain named.

T1: His-tagged recombinant Human TIGIT (human, UniProt Q495A1 22-141)
T1 construct: also called VSIG9; VSTM3; not shown: His tag
T1 sequence (looked up): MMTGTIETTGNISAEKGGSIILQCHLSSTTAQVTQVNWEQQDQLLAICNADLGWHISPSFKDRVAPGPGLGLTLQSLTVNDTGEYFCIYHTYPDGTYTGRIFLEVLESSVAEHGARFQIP

T2: His-tagged recombinant Mouse TIGIT (mouse, UniProt P86176 29-148, limits assumed)
T2 construct: not shown: His tag
T2 sequence (looked up): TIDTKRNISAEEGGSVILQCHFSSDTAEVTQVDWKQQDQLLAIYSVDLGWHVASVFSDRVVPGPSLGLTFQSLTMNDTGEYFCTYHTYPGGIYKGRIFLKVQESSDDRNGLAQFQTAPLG

B1: Ab1 (Fab, V domains shown)
VH: EVQLLESGGGLVQPGGSLRLSCAASGFTFSSYAMHWVRQAPGKGLEWVSGISSNGGSTSYADSVKGRFTISRDNSKNTLYLQMNSLRAEDTAVYYCARVPYSVWIDYWGQGTLVTVSS
VL: not shown
notes: ARV set; also called clone Ab1
B2: Ab78 (Fab, V domains shown)
VH: B1 VH with A33S, S49A, G50S, S53G, N54S, G55T, G56S, T58S, S102D, I105M
VL: not shown
notes: ARV set
B3: Ab23 (Fab, V domains shown)
VH: EVQLLESGGGLVQPGGSLRLSCAASGFTFSSYAMSWVRQAPGKGLEWVARINSDSSNTYYADSVKGRFTISRDNSKNTLYLQMNSLRAEDTAVYYCAREPYSYWLDYWGQGTLVTVSS
VL: not shown
notes: ARE set
B4: Ab187 (Fab, V domains shown)
VH: B3 VH with A33S, R50S, N52K, S55A, N57T, Y59G, Y103V
VL: not shown
notes: ARE set
B5: Ab7 (Fab, V domains shown)
VH: B3 VH with R50S, N52K, D54S, N57S, T58I, Y59S
VL: not shown
notes: ARE set
B6: Ab170 (Fab, V domains shown)
VH: B1 VH with S30N, S49A, G50Y, S53G, G55A, T58I, S59Y, I105L
VL: not shown
notes: ARV set
B7: Ab152 (Fab, V domains shown)
VH: B1 VH with A33S, S49T, G50S, G55A, S57Y, T58I, S102D, I105M
VL: not shown
notes: ARV set
B8: Ab19 (Fab, V domains shown)
VH: B3 VH with A33S, R50N, N52K, D54N, S56G, N57Y, Y103V
VL: not shown
notes: ARE set
B9: Ab93 (Fab, V domains shown)
VH: B1 VH with H35S, S49A, G50S, N54S, G55T, S57T, T58I, I105M
VL: not shown
notes: ARV set
B10: Ab4 (Fab, V domains shown)
VH: EVQLLESGGGLVQPGGSLRLSCAASGFTFDSYGMNWVRQAPGKGLEWVASIKYSSGYKYYADSVKGRFTISRDNSKNTLYLQMNSLRAEDTAVYYCARGPYDVWMDYWGQGTLVTVSS
VL: not shown
notes: ARG set
B11: Ab53 (Fab, V domains shown)
VH: B10 VH with D30S, G33S, N35H, Y53S, G56S, Y57N, M105L
VL: not shown
notes: ARG set; also called clone Ab53
B12: Ab54 (Fab, V domains shown)
VH: B1 VH with H35S, G50S, S52K, G55T, V99E, V103Y, I105L
VL: not shown
notes: ARE set
B13: Ab15 (Fab, V domains shown)
VH: B1 VH with A33S, S49A, G50S, S52W, G55S, S57N, S59G, S102D, V103Y, I105M
VL: not shown
notes: ARV set
B14: Ab22 (Fab, V domains shown)
VH: B10 VH with D30S, G33S, N35H, Y53S, S55G, Y57S, G99V, V103Y
VL: not shown
notes: ARV set
B15: Ab13 (Fab, V domains shown)
VH: B1 VH with S30D, A33S, G50S, S52N, S57Y, T58K, S59Y, S102D, V103Y
VL: not shown
notes: ARV set
B16: Ab12 (Fab, V domains shown)
VH: B3 VH with R50S, D54N, S55G, S56G, N57Y, T58K, Y59S, S102G, Y103T
VL: not shown
notes: ARE set
B17: Ab143 (Fab, V domains shown)
VH: B1 VH with A33S, S49A, G50A, S52N, G55A, T58S, S102G, I105M
VL: not shown
notes: ARV set; also called clone Ab143
B18: Ab191 (Fab, V domains shown)
VH: EVQLLESGGGLVQPGGSLRLSCAASGFTFSSYSMHWVRQAPGKGLEWVSSIKSSASYSSYADSVKGRFTISRDNSKNTLYLQMNSLRAEDTAVYYCARVPYDYWMDYWGQGTLVTVSS
VL: not shown
notes: ARV set
B19: Ab10 (Fab, V domains shown)
VH: B10 VH with D30S, G33S, S50Y, Y53S, S54N, Y57T, Y59G, V103Y, M105L
VL: not shown
notes: ARG set
B20: Ab172 (Fab, V domains shown)
VH: B18 VH with S56G, S58T, S59Y, M105I
VL: not shown
notes: ARV set
B21: Ab40 (Fab, V domains shown)
VH: B10 VH with D30S, S50G, Y57N
VL: not shown
notes: ARG set; also called clone Ab40
B22: Ab97 (Fab, V domains shown)
VH: B1 VH with A33S, S49A, G50A, G55T, T58I, S59G, S102D
VL: not shown
notes: ARV set
B23: Ab155 (Fab, V domains shown)
VH: EVQLLESGGGLVQPGGSLRLSCAASGFTFSSYSMNWVRQAPGKGLEWVAAISGDTGTSGYADSVKGRFTISRDNSKNTLYLQMNSLRAEDTAVYYCAREPYSVWLDYWGQGTLVTVSS
VL: not shown
notes: ARE set
B24: Ab60 (Fab, V domains shown)
VH: B18 VH with K52S, S56G, S58T, Y103V, M105L
VL: not shown
notes: ARV set
B25: Ab193 (Fab, V domains shown)
VH: B3 VH with A49S, R50A, N52K, S55T, N57T, T58I, Y103T
VL: not shown
notes: ARE set
B26: Ab38 (Fab, V domains shown)
VH: B1 VH with A33T, H35S, S49A, S52W, N54D, G55S, S57N, T58K, S59G
VL: not shown
notes: ARV set
B27: Ab28 (Fab, V domains shown)
VH: B1 VH with A33S, S49A, G50N, S52N, S57N, S59G, S102D, I105M
VL: not shown
notes: ARV set
B28: Ab179 (Fab, V domains shown)
VH: B3 VH with R50S, N52K, D54N, S55T, S56G, N57S, Y103V
VL: not shown
notes: ARE set
B29: Ab48 (Fab, V domains shown)
VH: B18 VH with H35N, S49A, S50N, A55G, Y57S, S58T, V99G, Y103V
VL: not shown
notes: ARG set; also called clone Ab48
B30: Ab6 (Fab, V domains shown)
VH: B3 VH with S31D, A33S, N52S, D54S, N57Y, T58K, Y59S, Y103V
VL: not shown
notes: ARE set
B31: Ab68 (Fab, V domains shown)
VH: B1 VH with A33S, S49A, G50A, S52K, S53G, G55T, S59Y, S102G, I105M
VL: not shown
notes: ARV set
B32: Ab2 (Fab, V domains shown)
VH: EVQLLESGGGLVQPGGSLRLSCAASGFTFSSYGMNWVRQAPGKGLEWVAGINYSSGNKYYADSVKGRFTISRDNSKNTLYLQMNSLRAEDTAVYYCARGPYASTWLDYWGQGTLVTVSS
VL: not shown
notes: ARG set

molecular target: T1, His-tagged recombinant Human TIGIT; experiment: ELISA, coated His-tagged human TIGIT
Description: (§1) Binding affinities for antigen binding to anti-TIGIT monoclonal antibodies were determined by ELISA. […] Antibodies to be tested were diluted to 1 μM in PBS buffer containing 1% BSA and diluted 3-fold in a 10-point curve. […] Detection of the secondary antibody was determined using streptavidin-HRP and TMB reagent. All assays were performed at room temperature. Curve-fitting software was used to determine the EC₅₀ for each antibody.

Binder | EC50 [nM]
B1 | 40.3
B2 | 119
B3 | 289
B4 | 6.2
B5 | 14.6
B6 | 138
B7 | 27.1
B8 | 19.8
B9 | 122
B10 | 1.2
B11 | 4.3
B12 | 91.9
B13 | 5
B14 | 9.1
B15 | 43.1
B16 | 27.7

Binder | EC50 [nM]
B17 | 3.4
B18 | 44.9
B19 | 101
B20 | 83.2
B21 | 0.3
B22 | 289
B23 | 32.8
B24 | 79.8
B25 | 4.6
B26 | 45.5
B27 | 7.5
B28 | 155
B29 | 13.8
B30 | 25.4
B31 | 639
B32 | 15.7

molecular target: T2, His-tagged recombinant Mouse TIGIT; experiment: ELISA, coated His-tagged mouse TIGIT
Description: as §1

Binder | EC50 [nM]
B1 | 181
B3 | 74.4
B5 | 11.5
B8 | 64.8
B12 | 21.5
B13 | 8.4
B14 | 5.1
B15 | 59.2
B17 | 5.7
B18 | 104
B19 | 40.7
B20 | 108
B23 | 234
B27 | 28.7
B28 | 228
B29 | 41.8
